This note sets out measurements from PMC6219724.

Experiment [1] deals with dynamic microtubules grown from coverslip-anchored GMPCPP-stabilized seeds with purified bovine brain tubulin (bovine) (UniProt Q6B856). Put plainly: laser trap bead assay; protein held on streptavidin beads by biotinylated His5 antibody (60, 600, 6,500 nM); dynamic microtubules from coverslip-anchored seeds, 6 µM bovine brain tubulin; preload 0.8 ± 0.3 pN (3.3 ± 0.5 pN for Ndc80 complex), friction coefficient on the lattice, then force ramp of 0.25 pN/s until rupture of the tip attachment.

Experiment [2] addresses biotinylated Taxol-stabilized microtubules grown from bovine tubulin (bovine) (UniProt Q6B856). The experiment is described as follows: single-molecule TIRF microscopy; biotinylated Taxol-stabilized microtubules tethered to the coverslip; 1.5 nM 549SNAP-tagged KKT4 in BRB80, 1 mg/ml κ-casein, 1 mM DTT, 10 µM Taxol; residence time, lattice diffusion and brightness of single particles.

Substance 6HIS-KKT4 115-343 (domain or fragment) returned an average rupture force of tip attachments in experiment [1] of 2.1 pN.

Turning to “charge-reversal mutant KKT4 115-343 (R123E, K132E, R154E) (domain or fragment)”, the average rupture force of tip attachments in experiment [1] stood at 1.6 pN.

On to “full-length KKT4 fused with an N-terminal SNAP-6HIS-3FLAG tag, labeled with 549SNAP dye (natural protein)”, for which, in experiment [2], the average residence time is 5.4 s and the diffusion coefficient on the microtubule lattice came out at 0.0071 µm^2/s.

“full-length charge-reversal mutant KKT4 (R123E, K132E, R154E), 549SNAP-tagged (natural protein)”: in experiment [2], the fold change of the average residence time against wild-type KKT4 is 2 fold shorter and the fold change of the lattice diffusion against wild-type KKT4 was found to be 2 fold faster.
